B1: NG83: anti-HER3 mAb; light chain CDRs SEQ ID NOs: 7-9, heavy chain CDRs 10-12 (antibody, V domains shown)
VH: QIQLVQSGPELKKRGETVKISCKASGYTFTNYGMNWVRQAPGKGLKCMGWINTYAGEPTYADDFKGRFAFSLDSSASTAYLQINNLKNEDMATYFCARGGITGAMDYWGQGTSVTVSS
VL: DVVMTQKTSSLSTSLGDRVTISCRASQDIRNYLNWYQQKPDGTVKLLIYYTSRLHSGVPSRFSGSGSGTDYSLTISDLEQEDIATYFCQQGNTLPWTFGGGTKLAIK
modifications: VH chain of NG83 polypeptide; VL chain of NG83 polypeptide
B2: XC252: anti-HER3 mAb generated as described in Chen X, et al. (1996); heavy and light chain SEQ ID NOs: 49 and 53 (antibody, V domains shown)
VH: EVQLQQSGAELVRPGVSVKISCKGSGYTFTDYAMHWVKQSHAKSLEWIGVISTYYGDPRDNQKFKGKATMTVDKSSSTAYMELARLTSEDSAIYYCARGDYDWYAIDYWGQGTSVTVSS
VL: DVVMTQTPLSLPVSLGDQASISCRSSQSIVHSDGNTYLEWYLQKPGQSPKLLIYKVSNRFSGVPDRFSGSGSGTDFTLKISRVEAEDLGVYYCFQGSHVPPTFGGGTKLEIK
modifications: VH chain of XC252 polypeptide; VL chain of XC252 polypeptide

What was measured:
denatured form of HER3 = denatured form of HER3 (Homo sapiens, UniProt P21860); test: Western blot detection of HER3 in T47D cell lysate (mAb as primary Ab); type: binding
Protocol: FIGS. 1A-E show hybridoma Screening and mAb Isotyping. (FIG. 1A) Mice were immunized with recombinant IgB3. (FIG. 1B) The hybridoma supernatant screening using ELISA, was performed on 96 well-plate coated with IgB3 (1 μg/ml) or with a human IgG. The plates were blocked with PBS-1% BSA and incubated for 1 h with hybridoma supernatants, followed by a second incubation for 1 h with HRP-labeled anti-mouse IgG and subsequently detected by 2,2′-azino-bis (3-ethylbenzothiazoline-6-sulfonic acid) addition. The OD at 415 nm was then measured using an ELISA microplate reader. (FIG. 1C) The second step of the screening was performed by immunoprecipitation (IP). Anti-mouse IgG beads were incubated first with the hybridoma supernatant and subsequently with total cell lysate from HER3-expressing T47D cells. (FIG. 1D) The mAbs directed to HER3 were isotyped using ELISA. […] (FIG. 1E) Finally the ability of the mAbs to detect HER3, used as primary Ab in a Western Blot experiment, was determined on cell lysate from T47D cells.
Cells were grown under specified conditions or treated as indicated. […] Antibody binding to membrane blots was detected using horseradish peroxidase-secondary antibodies (Jackson ImmunoResearch Laboratories), followed by treatment with ECL Western blotting detection reagents (GE Healthcare). […]

NRG binding to HER3 = NRG binding to HER3 (Homo sapiens, UniProt P21860); details: increasing mAb concentrations, 45 min at 4° C., then d2-labeled NRG
Protocol: (FIG. 9A) The indicated mAbs were checked for their capacity to compete with fluorescent dye labeled NRG. […] After washes, the labeled-NRG was added and incubated for 30 min at 4° C. Fluorescence intensity at 670 nm was determined following 3 final washes. (FIG. 9B) The ability of the mAbs to avoid NRG-induced phosphorylation of HER3, AKT and ERK, was studied with N87 cells. After 20 min treatment with the indicated mAbs (10 μg/ml) at 37° C., NRG (20 ng/ml) was added to the cells for 10 min. The cells were then lysed, and equal quantities of protein lysates were run on 9% bisacrylamide gel before immunoblotting with the indicated primary antibodies. (FIG. 9C) The capacity of mAb NG33 to avoid NRG-induced migration was checked with OVCAR-5 cells and the quantification reported in a histogram. […] Signals of triplicates were quantified. **** […] (ANOVA and post hoc tests).
Agent labeling was performed by Cisbio. […] Following 1 h incubation, the plate was washed 4 times with KREBS buffer (146 mM NaCl, 4 mM KCl, 0.5 mM MgCl2, 1 mM CaCl2, 10 mM Hepes, 1 gr/L glucose, and 1 mg/mL albumin), and the fluorescent intensity (excitation: 488 nm, emission: 610 nm) was measured using a fluorescence microplate reader. […] Finally, following two washes with KREBS buffer, the fluorescence intensity was measured at 670 nm (excitation: 620 nm). […]

NRG binding to HER3, sequence (P21860 20-1342): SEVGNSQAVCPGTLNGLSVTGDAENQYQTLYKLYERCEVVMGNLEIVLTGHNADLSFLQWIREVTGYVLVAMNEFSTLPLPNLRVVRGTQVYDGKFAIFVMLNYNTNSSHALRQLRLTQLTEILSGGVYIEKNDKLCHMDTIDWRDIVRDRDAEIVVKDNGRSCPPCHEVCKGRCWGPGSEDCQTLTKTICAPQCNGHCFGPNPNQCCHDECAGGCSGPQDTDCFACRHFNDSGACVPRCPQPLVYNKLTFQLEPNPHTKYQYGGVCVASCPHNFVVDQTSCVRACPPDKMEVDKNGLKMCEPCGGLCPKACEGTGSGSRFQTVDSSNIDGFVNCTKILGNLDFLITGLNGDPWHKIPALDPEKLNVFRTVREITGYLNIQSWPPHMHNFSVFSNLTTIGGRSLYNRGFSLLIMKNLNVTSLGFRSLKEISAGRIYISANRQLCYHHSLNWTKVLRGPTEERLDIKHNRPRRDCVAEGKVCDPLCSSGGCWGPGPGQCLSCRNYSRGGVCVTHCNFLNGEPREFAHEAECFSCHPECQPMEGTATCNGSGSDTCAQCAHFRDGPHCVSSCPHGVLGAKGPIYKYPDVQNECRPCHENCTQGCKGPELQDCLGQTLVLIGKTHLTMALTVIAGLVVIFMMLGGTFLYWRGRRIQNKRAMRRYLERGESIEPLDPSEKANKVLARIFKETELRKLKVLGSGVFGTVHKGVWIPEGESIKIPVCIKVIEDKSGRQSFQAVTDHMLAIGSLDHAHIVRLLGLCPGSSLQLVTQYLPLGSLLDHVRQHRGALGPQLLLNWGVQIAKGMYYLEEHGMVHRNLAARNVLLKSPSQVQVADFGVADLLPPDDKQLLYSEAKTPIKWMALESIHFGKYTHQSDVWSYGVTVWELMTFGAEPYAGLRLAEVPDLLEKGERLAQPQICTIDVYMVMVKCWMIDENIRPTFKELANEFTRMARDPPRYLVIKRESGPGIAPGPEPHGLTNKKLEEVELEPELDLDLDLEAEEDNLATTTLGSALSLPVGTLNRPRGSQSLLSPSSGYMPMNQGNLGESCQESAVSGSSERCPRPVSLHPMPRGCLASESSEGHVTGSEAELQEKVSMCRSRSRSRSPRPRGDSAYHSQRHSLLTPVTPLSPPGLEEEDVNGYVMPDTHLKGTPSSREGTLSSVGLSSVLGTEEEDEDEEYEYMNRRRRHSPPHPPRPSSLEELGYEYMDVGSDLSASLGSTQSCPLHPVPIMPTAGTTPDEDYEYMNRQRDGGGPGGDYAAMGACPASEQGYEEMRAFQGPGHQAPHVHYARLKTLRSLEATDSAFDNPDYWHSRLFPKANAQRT
denatured form of HER3, sequence (P21860 20-1342): as above

Molecule | recognition of HER3 in western blotting (denatured form of HER3) | effect on NRG binding to HER3 (NRG binding to HER3)
B1 | able to recognize the denatured form of HER3 | did not disturb NRG binding
B2 | – | slightly enhanced NRG binding
